# Data taken from US20240352111A1 (Regeneron, published 2024).
# How the values were obtained:
# [1] = target: T1, MfArtemin-MMH (cynomolgous monkey (Macaca fascicularis)); test: SPR Biacore T200, MfArtemin-MMH captured by anti-myc mAb, mAb injected, 25 C
# T1 construct: also called mfARTN.mmh; mfARTN (A108-G22).mmh
# T1 chain: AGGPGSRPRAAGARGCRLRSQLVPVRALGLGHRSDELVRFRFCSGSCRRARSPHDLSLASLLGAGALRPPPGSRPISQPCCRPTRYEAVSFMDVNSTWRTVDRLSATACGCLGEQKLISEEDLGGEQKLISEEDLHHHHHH
# Protocol: The equilibrium dissociation constant (KD) for Artemin binding to each of Artemin monoclonal antibodies (mAbs) H4H33331P, H4H33335P, H4H33336P, and H4H33349P was determined using a real-time surface plasmon resonance Biacore T200 biosensor. All binding studies were performed in 10 mM HEPES, 150 mM NaCl, 3 mM EDTA, and 0.05% v/v Surfactant Tween-20, pH 7.4 (HBS-ET) running buffer at 25° C. The Biacore CM4 sensor chip surface was first derivatized by amine coupling with anti-myc mAb to capture hArtemin-MMH, MfArtemin-MMH, or mArtemin-MMH. Different concentrations of Artemin mAbs (60-2.2 nM, 3-fold serial dilution) prepared in […] running buffer were injected over the Artemin-captured surfaces for 3 min at a flow rate of 50 μL/min and their dissociation in HBS-ET running buffer was monitored for 5 minutes. At the end of each cycle, the Artemin-captured surfaces were regenerated using a 6 sec injection of 20 mM phosphoric acid.
# The association rate (kₐ) and dissociation rate (kd) were determined by fitting the real-time binding sensorgrams to a 1:1 binding model with mass transport limitation using Scrubber 2.0c curve-fitting software. Binding dissociation equilibrium constant (KD) and dissociative half-life (t½) were calculated from the kinetic rates as: KD (M)=kd/kₐ, and t_{1/2} (min)=[In2/(60*kd)].
# [2] = target: T2, mArtemin-MMH (mouse); test: blocking ELISA, antibody blocks 150 pM msARTN.mmh binding to plate-coated hGFRa3.hFc
# T2 construct: also called msArtemin-MMH; msARTN.mmh
# T2 chain: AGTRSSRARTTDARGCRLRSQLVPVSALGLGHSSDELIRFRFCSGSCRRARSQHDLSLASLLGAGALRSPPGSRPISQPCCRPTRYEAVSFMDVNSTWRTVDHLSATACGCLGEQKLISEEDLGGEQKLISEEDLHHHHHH
# Protocol: (§1) Experiments were carried out using the following procedures. Plates were coated with hGFRa3.hFc at 2 μg/ml in PBS on a 96-well microtiter plate at 4° C. overnight for all three assays. […] In other microtiter plates, a constant amount of either 75 pM hARTN.mmh, 400 pM mfARTN.mmh, or 150 pM msARTN.mmh were separately bound with anti-ARTN antibodies and an irrelevant IgG4 antibody control at a serial dilution series from 0.0017 nM to 100 nM in PBS+0.5% BSA. After a one-hour incubation, the mixture solutions were transferred to microtiter plates coated with hGFRa3.hFc. After one hour of incubation at RT, the wells were washed with PBST, and plate-bound ARTN was detected with an anti-penta-His antibody conjugated with horseradish peroxidase (HRP) (Qiagen). The plates were then developed using TMB substrate solution (BD Biosciences, #555214) according to manufacturer's recommendation and absorbance at 450 nm was measured on a Victor X5 plate reader.
# (§2) Binding data were analyzed using a sigmoidal dose-response model within Prism™ software (GraphPad). […] If the calculated IC50 value was below the LLOA, less than LLOA was reported. Percent blocking at 100 nM antibody was calculated based on the background-corrected binding signal observed at the highest antibody concentration tested using the formula listed below and reported for all tested antibodies: […]
# [3] = target: T1, MfArtemin-MMH; test: BLI (Octet HTX), mAb captured on AHC tips, artemin at 30 nM, 25 C
# Protocol: (§3) The entire experiment was performed at 25° C. in 10 mM HEPES, 150 mM NaCl, 3 mM EDTA, 0.02% NaN3 and 0.05% v/v Surfactant Tween-20, 1 mg/mL BSA, pH7.4 (HBS-EBT) buffer with the plate shaking at a speed of 1000 rpm. Different Artemin mAbs were first captured onto anti-human antibody (AHC) coated Octet biosensor tips (Fortebio Inc, #18-5064) by submerging the biosensor tips for 40 seconds in wells containing 2 μg/mL of Artemin mAb. […] All the Artemin and Artemin mAb samples were prepared in HBS-EBT buffer. The real-time binding response was monitored during the entire course of the experiment and the binding response at the end of every step was recorded.
# [4] = target: T2, mArtemin-MMH; test: as above
# Protocol: as §3
# [5] = target: T3, hArtemin-MMH (human); test: as above
# T3 construct: also called hARTN.mmh; hARTN (A108-G220).mmh
# T3 chain: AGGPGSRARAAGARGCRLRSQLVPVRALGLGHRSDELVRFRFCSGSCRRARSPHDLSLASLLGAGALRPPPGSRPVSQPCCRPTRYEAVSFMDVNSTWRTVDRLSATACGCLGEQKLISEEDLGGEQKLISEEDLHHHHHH
# Protocol: as §3
# [6] = target: T3, hArtemin-MMH; test: blocking ELISA, antibody blocks 75 pM hARTN.mmh binding to plate-coated hGFRa3.hFc
# Protocol: as §1, §2
# [7] = target: T1, MfArtemin-MMH; test: blocking ELISA, antibody blocks 400 pM mfARTN.mmh binding to plate-coated hGFRa3.hFc; * below lower limit of assay (1.00E-10 M)
# Protocol: as §1, §2
# [8] = target: T1, MfArtemin-MMH; test: cell-based or functional assay
# [9] = target: T2, mArtemin-MMH; test: cell-based or functional assay
# [10] = target: T3, hArtemin-MMH; test: cell-based or functional assay
# [11] = target: T2, mArtemin-MMH; test: blocking ELISA, antibody blocks 150 pM msARTN.mmh binding to plate-coated hGFRa3.hFc; * below lower limit of assay (3.75E-11 M)
# Protocol: as §1, §2
binder,measurement,setting,value
"H4H33336P (antibody, human IgG4 S228P, kappa, V domains shown, Fully human antibody; also called Artemin mAb; anti-ARTN antibody) VH: QVQLVESGGGVVQPGRSLRLSCVASGFILSHYGMHWVRQAPGKGLEWVAVIWFDGTNKYYADSVKGRFTVSRDNSKNTLYMQMNSLRAEDTAVYYCARDPPPARRGNYNGMDVWGQGTTVTVSS VL: DIQMTQSPSSLSASVGDRVTITCRASQDIRNDLGWYQQKPGKAPKRLIFGASSLQSGVPLRFSGSGSGTEFTLTINNLQPEDFATFYCLQDNSYPWTFGQGTKVEIKR",60 nM Artemin mAb Bound (RU),[1],11 RU
same,Kd,[1],111 pM
same,koff,[1],2.3e-05 s⁻¹
same,kon,[1],207000 M⁻¹ s⁻¹
same,t½,[1],8.37 h
same,% Blocking with 100 nM Ab,[2],81%
same,IC50,[2],410 pM
same,Artemin Binding Response (nm),[3],0.06 nm
same,Artemin Binding Response (nm),[4],0.03 nm
same,Artemin Binding Response (nm),[5],0.12 nm
same,% Blocking with 100 nM Ab,[6],93%
same,IC50,[6],161 pM
same,IC50,[7],75 pM
same,"Max inhibition (%), SRE-luciferase reporter, 3 nM mfArtemin",[8],100%
same,"Max inhibition (%), SRE-luciferase reporter, 1 nM mArtemin",[9],100%
same,"Max inhibition (%), SRE-luciferase reporter, 500 pM hArtemin",[10],100%
"H4H33331P (antibody, human IgG4 S228P, kappa, V domains shown, Fully human antibody (human variable and constant domains) from a VELOCIMMUNE mouse; also called Artemin mAb; anti-ARTN antibody) VH: EVQLVESGGDLVQPGGSLKLSCAASGFTFSGSAMHWVRQASGKGLEWVGRIRNKVHRYATEYGASVKGRFTISRDDSKNTAYLQMNSLKIEDTAVYYCVVVVPGSIEAFDIWGQGTMVTVSS VL: DIQMTQSPSSLSASVGDRVTITCRASQSISTYLNWYQQKPGKAPNLLIYAASTLESGVPSRFSGSGSGTDFTLTISSLQPEDFEIYYCQQSYNIPWTFGQGTKVEIKR",60 nM Artemin mAb Bound (RU),[1],5 RU
same,Kd,[1],1510 pM
same,koff,[1],0.000199 s⁻¹
same,kon,[1],131000 M⁻¹ s⁻¹
same,t½,[1],0.967 h
same,IC50,[11],< 37.5 pM
same,% Blocking with 100 nM Ab,[2],83%
same,Artemin Binding Response (nm),[3],0.09 nm
same,Artemin Binding Response (nm),[4],0.1 nm
same,Artemin Binding Response (nm),[5],0.11 nm
same,% Blocking with 100 nM Ab,[6],88%
same,IC50,[6],380 pM
same,"Max inhibition (%), SRE-luciferase reporter, 3 nM mfArtemin",[8],100%
same,"Max inhibition (%), SRE-luciferase reporter, 1 nM mArtemin",[9],100%
same,"Max inhibition (%), SRE-luciferase reporter, 500 pM hArtemin",[10],100%
"H4H33349P (antibody, human IgG4 S228P, kappa, V domains shown, Fully human antibody; also called Artemin mAb; anti-ARTN antibody) VH: QVQLVESGGGVVQPGRSLRLSCEASGFTFSDYDLHWVRQAPGKGLEWVAFISNDGSNEYYPKSVKGRFSISRDNSKNTLYLQMNSLRAEDTAVYHCTKERDYYYDSSGSLDYWGQGTLVTVSS VL: DIQMTQSPSSLSASVGDRVTITCRASQTINNYLNWYQQKPGKAPKLLIYTTSGLQSGVPSRFSGRGSGTDFTLAISSLQPEDFATYYCQQSYHSPFTFGPGTKVDIKR",60 nM Artemin mAb Bound (RU),[1],14 RU
same,Kd,[1],210 pM
same,koff,[1],9.6e-05 s⁻¹
same,kon,[1],457000 M⁻¹ s⁻¹
same,t½,[1],2 h
same,IC50,[11],7.65 pM
same,% Blocking with 100 nM Ab,[2],88%
same,Artemin Binding Response (nm),[3],0.12 nm
same,Artemin Binding Response (nm),[4],0.11 nm
same,Artemin Binding Response (nm),[5],0.11 nm
same,% Blocking with 100 nM Ab,[6],95%
same,IC50,[6],128 pM
same,IC50,[7],30.2 pM
same,"Max inhibition (%), SRE-luciferase reporter, 3 nM mfArtemin",[8],100%
same,"Max inhibition (%), SRE-luciferase reporter, 1 nM mArtemin",[9],100%
same,"Max inhibition (%), SRE-luciferase reporter, 500 pM hArtemin",[10],100%
